“Also recorded” adds a separate entry of the source.
B1: NMC-103: mouse monoclonal antibody of the IgG1 isotype that binds to NMC-P1 (SEQ ID NO:1); VH SEQ ID NO:36, VL SEQ ID NO:37 (antibody, V domains shown)
VH: EVQLQESGGGLVQPGGSLRLSCTTSGFTFTHYYMSWVRQPPGKALEWLGFIRNKAKGYTAEYSASVKGRFTISRDNSQSILYLQMNTLRPEDSATYYCARDIGDNWGQGTLVTVSS
VL: DIVMTQAAFSNPVTLGTSASISCRSSKNLLHSNGITYLYWYLQRPGQSPQLLISRVSNLASGVPNRFSGSESGTDFTLRISRVEAEDVGVYFCAQLLELPYTFGGGTKLEIK
modifications: mAb NMC-103 Heavy Chain Variable Region; mAb NMC-103 Light Chain Variable Region
B2: NMC-204: mouse monoclonal antibody of the IgG3 isotype that binds to NMC-P2 (SEQ ID NO:2); VH SEQ ID NO:38, VL SEQ ID NO:39 (antibody, V domains shown)
VH: EVQLQESGSVLVRPGASVKLSCKASGDTLSGSWMHWAMQRPGQGLEWIGEIHLNRGTTNYNEKFKGKATVTVDTSSSTAYVDLSSLTSEDSAVYYCARSPGFAYWGQGTLVTVSA
VL: GIVMTQAAPSVPVTPGESVSISCRSSKSLLHSNGNSYLYWFLQRPGQSPQLLIYRMSNLASGVPDRFSGSGSGTAFTLRITRVEAEDVGVYYCMQHLEYPFTFGSGTKLEIK
modifications: mAb NMC-204 Heavy Chain Variable Region; mAb NMC-204 Light Chain Variable Region

What was measured:
[1] = tested on: mouse colon cancer MC-38 cells; test: MC-38 syngeneic mouse model of colon cancer; type: in vivo; conditions: for reduction in tumor volume over the same time period: 0.4 mg/kg i.p. 3 times a week for 3 weeks
Protocol: Methodology used (Syngeneic Mouse Models of lung, colon and pancreatic cancer): To investigate the anti-tumor effects of HDM2-specific antibodies on lung, colon and pancreatic tumors in vivo, three well-known syngeneic mouse models of lung, colon and pancreatic cancer were used (Sharma et al., 1999, J. Immunol. 163 (9):5020-5028; McIntyre, 2015, Bioassays 37(8):909-920; Li, et al., 2015, Sci. Rep. 5:7856). Subcutaneous tumors were prepared by implanting either mouse Lewis Lung cancer LL/2 cells (2.5×10^5 cells/mouse), mouse colon cancer MC-38 cells (5×10^5 cells/mouse) or mouse pancreatic cancer Panc-2 cells (2×10^6 cells/mouse) in the right flanks of 8-week-old female C57BL/6 mice (n=6-7). The mice were returned to their respective cages after tumor implantation. From day 7 after tumor implantation, the tumor volumes were measured 2 times/week with a digital caliper. In the case of MC-38 and Panc-2 study, treatment started when the tumors reached an average of 70-80 mm^3. In the case of LL/2 study, tumor cell inoculation and treatment were initiated simultaneously. Mice were micro-chipped and registered following tumor implantation. Tumor volume measurements and body weights were recorded and mice were randomized into groups that received: A) mAb NMC-103 at 0.4 mg/kg (3 times a week for 3 weeks), 2 mg/kg (2 times a week for 3 weeks), or 4 mg/kg (2 times a week for 3 weeks); B) NMC-204 at 0.4 mg/kg (3 times a week for 3 weeks); C) isotype control mouse IgG1 (Abcam, Cat. No. ab18447) or IgG3 (Abcam, Cat. No. ab18392) at 0.4 mg/kg (3 times a week for 3 weeks) or 4 mg/kg (2 times a week for 3 weeks); D) Gemcitabine (25 mg/kg) and nab-paclitaxel (5 mg/kg) 2 times a week for 3 weeks; or E) a combination of gemcitabine (25 mg/kg), nab-paclitaxel (5 mg/kg) and mAb NMC-103 (2 mg/kg; 2 times a week for 3 weeks) or ([…]; […]). All tumors were injected subcutaneously and all treatments were performed by intraperitoneal injection. Any mouse displaying prolonged adverse clinical signs, or with body weight loss exceeding 15% relative to body weight at day 0, was euthanized. Tumor measurements from post-treatment with HDM2-specific antibodies versus isotype control mouse antibodies versus standard of care treatment (gemcitabine and nab-paclitaxel) were made, and results are presented in FIGS. 16-19.

[2] = biological target: NMC-P1 peptide (SEQ ID NO:1), amino acids 1-15 of HDM2 (Homo sapiens, UniProt Q00987); test: Peptide-ELISA; type: binding; conditions: for binding to NMC-P1 peptide: peptide-ELISA, 5 μg/ml peptide on plate, OD 450 nm
Protocol: (§1) Peptide-ELISA Methodology: 5 μg/ml of NMC-P1, NMC-P2 or NMC-P3 peptide antigen was dried onto a 96-well ELISA plate overnight. Plates were then blocked with 5% BSA in 1× phosphate-buffered saline (PBS) (100 μl/well) for 2 hours at room temperature. Microplate wells were then washed 5 times with 300 μl of ice cold 1×PBS. Appropriate dilutions of monoclonal antibodies NMC-103, NMC-204 or NMC-303 in 1% bovine serum albumin (BSA) in PBS solution were then incubated with their corresponding peptides (NMC-P1, NMC-P2 or NMC-P3, respectively) at room temperature. After 2 hours, wells were washed 5 times with 300 μl ice-cold PBS/well and 100 μl secondary antibody (HRP-labeled Goat anti-Mouse F(ab′)2 H&L cross-adsorbed secondary antibody (HRP-GaM F(ab′)2), ThermoFisher, Cat. No. A24524) diluted 1:2500 to 1:5000 in PBS-1% BSA solution were added and the incubation continued at room temperature. After 1 hour, the wells were washed again 5 times with 200 μl of ice-cold PBS and 50 μL of the TMB Substrate Solution (1-Step™ Ultra TMB-ELISA, ThermoFisher, Cat. No. 34028) were added to each well and color was allowed to develop for 30 minutes at room temperature. The reaction was stopped by addition of 50 μL of stop solution (ThermoFisher, Cat. No. SS04) to each well and absorbance of each well was read immediately for optical density (OD) at 450 nm.
Competition assays: As for peptide antigen binding competition experiments, […] of mAb NMC-103 was pre-incubated with 10 μl/ml of NMC-P1, NMC-P2 or NMC-P3 for 1 hour at room temperature. MAb NMC-103 was then incubated with ELISA plates coated with NMC-P1 as described above.

[3] = biological target: T1, recombinant HDM2 protein (GST tagged) (Homo sapiens, UniProt Q00987); test: Western blot (immunoblot); type: binding; conditions: 1 μg/well protein, antibody 1 μg/ml; band at approximately 83 kD
T1 construct: NMC-103, NMC-204 and NMC-303 reacted with the recombinant full-length HDM2 protein; purchased Abcam ab188727
T1 sequence (Q00987 whole entry): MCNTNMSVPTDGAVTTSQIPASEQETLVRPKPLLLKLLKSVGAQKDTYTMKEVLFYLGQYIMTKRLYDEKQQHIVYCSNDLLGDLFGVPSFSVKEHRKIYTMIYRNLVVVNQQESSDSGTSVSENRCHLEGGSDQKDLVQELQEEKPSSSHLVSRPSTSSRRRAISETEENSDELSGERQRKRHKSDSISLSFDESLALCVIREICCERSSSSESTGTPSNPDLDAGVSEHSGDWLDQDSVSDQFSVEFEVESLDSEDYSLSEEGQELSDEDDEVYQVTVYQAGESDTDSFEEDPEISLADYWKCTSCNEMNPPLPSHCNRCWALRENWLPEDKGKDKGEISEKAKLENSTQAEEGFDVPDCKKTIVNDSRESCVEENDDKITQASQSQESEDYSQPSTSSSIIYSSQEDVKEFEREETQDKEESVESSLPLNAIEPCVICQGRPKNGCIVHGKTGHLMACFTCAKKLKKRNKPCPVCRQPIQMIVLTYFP
Protocol: Western Blot: As for immunoblots, 1 μg/well of recombinant HDM2 protein (GST tagged, Abcam, Cat. No. ab188727) was separated on 8-16% sodium dodecyl sulfate (SDS) polyacrylamide gel and proteins were then transferred to polyvinylidene difluoride (PVDF) membrane. The membrane was blocked with 5% milk followed by incubation with monoclonal antibody NMC-103, NMC-204 or NMC-303 at 1 μg/ml in 1% milk in PBS for 2 hours. The membrane was then washed ×3 times (10 minutes each) and incubated for 1 hour with corresponding HRP-conjugated secondary antibody (Goat anti-Mouse IgG (H&L), F(ab′)2 Frag Cross-adsorbed HRP (HRP-GaM F(ab′)2), ThermoFisher, Cat. No. A24524) diluted 1:5000 in 1% BSA-PBS. The membrane was then washed ×3 times and incubated with Pierce ECL Plus Western Blotting Substrate (ThermoFisher, Cat. No. #32132) for 10 min before developing on a LICOR Scanner.

[4] = biological target: NMC-P2 peptide (SEQ ID NO:2), amino acids 15-25 of HDM2 (Homo sapiens, UniProt Q00987); test: Peptide-ELISA; type: binding; conditions: 5 μg/ml peptide on plate, OD 450 nm
Protocol: as §1

[5] = competition: 1 μl/ml mAb pre-incubated with 10 μl/ml peptide for 1 hour

Molecule	average tumor size ([1]; MC-38, n=5, 10 mg/kg 2 times per week, by day 12)	reduction in tumor volume over the same time period ([1]; MC-38)	tumor reduction at 10 mg/kg compared to 0.4 mg/kg ([1]; MC-38, 10 mg/kg two times per week for three weeks vs FIG. 17)	tumor volume ([1]; MC-38 s.c. in C57BL/6, 0.4 mg/kg i.p. 3 times a week for 2.5 weeks, treated for 18 days (NMC-103 study))	tumor cells stained positive for Ki67 ([1]; MC-38 tumors, immunohistochemical staining, NMC-103 study, 0.4 mg/kg)	binding of mAb to plate-bound NMC-P1 after pre-incubation with NMC-P1 peptide [2, 5]	binding of mAb to plate-bound NMC-P1 after pre-incubation with NMC-P2 peptide [2, 5]	binding of mAb to plate-bound NMC-P1 after pre-incubation with NMC-P3 peptide [2, 5]	binding to NMC-P1 peptide [2]	reactivity with recombinant full-length HDM2-GST protein (immunoblot) [3]	binding to NMC-P2 peptide [4]	tumor volume ([1]; MC-38, 0.4 mg/kg i.p. 3 times a week for 3 weeks (NMC-204 study))	tumor cells stained positively for Ki67 ([1]; MC-38 tumors, NMC-204 study, 0.4 mg/kg)
B1	210 mm^3	significant (p<0.005) reduction in tumor volume	greater tumor reduction	1268 mm^3	5%	abolished the binding	did not affect the binding	did not affect the binding	bound; also recorded: strong binding	reacted	did not bind	–	–
B2	–	significant (p<0.005) reduction in tumor volume	–	–	–	–	–	–	did not bind	reacted	bound; also recorded: strong binding	1670 mm^3	30%

— patent publication US20220098328A1, “ANTIBODIES TO M(H)DM2/4 AND THEIR USE IN DIAGNOSING AND TREATING CANCER” (NomoCan Pharmaceuticals LLC, priority 2017, published 2022)
